This is an account of results in PMC12451834.

The assay has as its target RNA-binding protein EWS low-complexity domain (EWS^LCD, residues 1-264) (UniProt Q01844). The assay is described as follows: condensate partitioning assay.

Substance “EWS^RRM-RGG2 (central RNA-binding region of EWS: RNA-recognition motif and RGG2 domain) (domain or fragment)” came in with a percent (w/w) co-partitioned into condensates with EWS^LCD of 53 % w/w.
